Key:
[1] = molecular target: T1, GST-MYB47 (Arabidopsis thaliana, UniProt Q6R0C2 1-267); assay: EMSA; 5 mM Mg2+; 10 mM Tris-HCl pH 7.5, 50 mM KCl, 1 mM DTT, 2.5% glycerol, 5 mM MgCl2, 0.1% IGEPAL CA-630, 0.05 ug/uL poly(dI-dC); 500 ng protein, probe 5 uM; competitor 20 min then probe 30 min at room temperature; conditions: protein: recombinant; tags: N-terminal GST (pDEST15); label: 5' biotin on strand 1 as probe; blunt
T1 sequence: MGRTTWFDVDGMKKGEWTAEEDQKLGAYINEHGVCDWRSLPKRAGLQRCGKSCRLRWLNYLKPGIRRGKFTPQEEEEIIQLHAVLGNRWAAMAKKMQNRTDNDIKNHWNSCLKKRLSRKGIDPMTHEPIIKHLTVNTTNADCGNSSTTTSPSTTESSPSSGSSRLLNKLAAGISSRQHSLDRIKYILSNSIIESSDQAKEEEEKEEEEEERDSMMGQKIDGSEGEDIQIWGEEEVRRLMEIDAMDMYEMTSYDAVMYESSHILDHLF

[2] = molecular target: T2, GST-MYB95 (Arabidopsis thaliana, UniProt Q7DSY5 1-271); assay: as above; conditions: protein: recombinant; tags: N-terminal GST (pDEST15); label: 5' biotin on strand 1 as probe; blunt
T2 sequence: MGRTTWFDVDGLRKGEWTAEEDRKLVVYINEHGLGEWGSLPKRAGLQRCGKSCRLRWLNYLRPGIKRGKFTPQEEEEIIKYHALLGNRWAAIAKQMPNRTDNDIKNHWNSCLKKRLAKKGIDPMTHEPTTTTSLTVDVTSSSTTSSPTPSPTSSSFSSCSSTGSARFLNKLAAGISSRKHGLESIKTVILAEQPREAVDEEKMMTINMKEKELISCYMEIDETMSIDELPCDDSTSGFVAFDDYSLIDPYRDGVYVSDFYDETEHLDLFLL

[3] = molecular target: T1, GST-MYB47; assay: competition EMSA; 20-fold excess over pTSA1 probe; 10 mM Tris-HCl pH 7.5, 50 mM KCl, 1 mM DTT, 2.5% glycerol, 5 mM MgCl2, 0.1% IGEPAL CA-630, 0.05 ug/uL poly(dI-dC); 500 ng protein, probe 5 uM; competitor 20 min then probe 30 min at room temperature; conditions: protein: recombinant; tags: N-terminal GST (pDEST15); blunt
[4] = molecular target: T2, GST-MYB95; assay: as above; conditions: protein: recombinant; tags: N-terminal GST (pDEST15); blunt

B1: pTSA1 probe (dsDNA)
DNA 1: GAATGAAATCCACGTTTAAGTTAGTTACAACGGTTT
DNA 2: AAACCGTTGTAACTAACTTAAACGTGGATTTCATTC
[1]
  binding result: binds
[2]
  binding result: binds

B2: pTSA1-m1 (box1 mutated) (dsDNA)
DNA 1: GAATGAAATCTTTCCCCAAGTTAGTTACAACGGTTT
DNA 2: AAACCGTTGTAACTAACTTGGGGAAAGATTTCATTC
[3]
  binding result: binds
[4]
  binding result: binds

B3: pTSA1-m2 (box2 mutated) (dsDNA)
DNA 1: GAATGAAATCCACGTTTAACCCCTTTACAACGGTTT
DNA 2: AAACCGTTGTAAAGGGGTTAAACGTGGATTTCATTC
[3]
  binding result: no binding
[4]
  binding result: no binding
